Like-named read-outs stand apart in the source and are kept apart here. Each block holds one molecule with its values, some of them ahead of it.
Assays:
[1] = molecular target: FcγRs (mouse (endogenous in C57BL/6 mice))
[2] = molecular target: T1, Recombinant mouse CD27-human Fc (mouse, UniProt P41272 24-182); experiment: SPR; apparent; Biacore T200, HBS-EP+; mouse CD27-human Fc captured on anti-human IgG coupled to a CM5 chip; CD70 fusion proteins (1.56, 6.25, 25 and 100 nM) injected at 30 ul/min; KD from ka and kd
T1 construct: CD27, mouse; Captured by anti-human IgG on the chip; no catalogue number is printed; also called CD27-Fc; mouse CD27 protein; source: bought: R&D systems
T1 sequence (looked up): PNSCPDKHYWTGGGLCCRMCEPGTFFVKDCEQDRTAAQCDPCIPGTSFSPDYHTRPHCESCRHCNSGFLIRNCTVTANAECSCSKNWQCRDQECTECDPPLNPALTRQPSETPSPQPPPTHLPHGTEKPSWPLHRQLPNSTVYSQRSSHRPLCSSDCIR

[3] = molecular target: dimer of trimer CD70-Fc fusion protein (dtCD70-Fc) (mouse) (UniProt O55237); experiment: SDS-PAGE under non-reducing and reducing conditions; 5 ug purified protein on a 10% SDS-polyacrylamide gel, Coomassie blue; disulfide-linked dimer of the Fc fusion chain
[4] = molecular target: anti-CD27 mouse IgG1 (recombinant, from hybridoma AT124-1) (mouse); experiment: SPR; about 2000 RU of dtCD70-Fc or anti-CD27 immobilised on a CM5 chip by amine coupling; mouse FcRn (0, 0.8, 4, 20, 100, 500 nM) injected 3 min at 30 ul/min in HBS-EP+ pH 6; KD from steady-state binding levels
[5] = molecular target: dimer of trimer CD70-Fc fusion protein (dtCD70-Fc) (mouse) (UniProt O55237); experiment: as above

OT-I T cell expansion in vivo during the primary response, Endo H treated dtCD70-Fc (wild-type Fc) against Endo H treated dtCD70-Fc(D265A) [1]: 3 fold
Molecule: Endo H treated dtCD70-Fc (from UniProt O55237 41-195; O55237 41-195; O55237 41-195) (Fc fusion)

Kd [2]: 0.6 nM | stoichiometry N [3]: 2
Molecule: dimer of trimer CD70-Fc fusion protein (dtCD70-Fc) (from UniProt O55237 41-195; O55237 41-195; O55237 41-195)

Kd ([2]; both partners purified): 1.2 nM
B1: Soluble trimeric CD70 (tCD70) (ligand, mouse, UniProt O55237 41-195, looked up)
chain: SGLLSKQQQRLLEHPEPHTAELQLNLTVPRKDPTLRWGAGPALGRSFTHGPELEEGHLRIHQDGLYRLHIQVTLANCSSPGSTLQHRATLAVGICSPAAHGISLLRGRFGQDCTVALQRLTYLVHGDVLCTNLTLPLLPSRNADETFFGVQWICP
notes: CD70, mouse, extracellular domain S41-P195; Predicted chain MW 51.5 kDa; also called CD4 fusion protein; not shown: CD4 domains 3 and 4 (mouse), N-terminal, kept

Kd [4]: 49 nM | Kd [5]: 46 nM
B2: recombinant mouse FcRn (receptor)
chain: SETRPPLMYHLTAVSNPSTGLPSFWATGWLGPQQYLTYNSLRQEADPCGAWMWENQVSWYWEKETTDLKSKEQLFLEALKTLEKILNGTYTLQGLLGCELASDNSSVPTAVFALNGEEFMKFNPRIGNWTGEWPETEIVANLWMKQPDAARKESEFLLNSCPERLLGHLERGRRNLEWKEPPSMRLKARPGNSGSSVLTCAAFSFYPPELKFRFLRNGLASGSGNCSTGPNGDGSFHAWSLLEVKRGDEHHYQCQVEHEGLAQPLTVDLDSSARSS
